Data: article PMC11790763, “A Peptide Motif Covering Splice Site B in Neuroligin-1 Binds to Aβ and Acts as a Neprilysin Inhibitor” (Molecular Neurobiology, 2024)

What was measured:
[1] = biological target: Biotinylated amyloid-β peptide 1-40 (Aβ1-40); assay: ELISA; competitive ELISA: NL1 (3.125 nM) coated on the plate; biotinylated Aβ1-40 (400 nM; Aβ40-1 as negative control) premixed 30 min with serially diluted NL1 or NL1-derived peptides; 4 h at room temperature; streptavidin-HRP; IC50 interpreted as KD
[2] = biological target: T1, recombinant rat NL1 (Rattus norvegicus, UniProt Q62765); assay: Surface plasmon resonance binding to immobilized NL1; conditions: SPR, Biacore 2000, 25 °C, HBS-P pH 7.4 + 3 mM CaCl2; analyte injected over NL1 immobilized on CM4 chip, 20 μl/min; 1:1 Langmuir model; four independent experiments
T1 construct: the extracellular domain of NL1 was immobilized on a sensor chip; purchased R&D systems (Abingdon, UK)
Procedure: Binding analysis was performed on a Biacore 2000 SPR biosensor (GE Healthcare) at 25 °C using HBS-P (10 mM HEPES, pH 7.4, 150 mM NaCl, 0.005% [v/v] Surfactant P20) supplemented with 3 mM CaCl2 as a running buffer. Approximately 2000 Resonance Units (RU) of NL1 was immobilized on a CM4 sensor chip at a flow rate of 5 μl/min by amine coupling. Binding to serially diluted recombinant NX1β, used as a positive control, was performed as previously described. Aβ1-42 was dissolved in anhydrous DMSO to a stock concentration of 3.21 mM followed by serial dilution in running buffer. Peptide was injected into the chip, and binding experiments were performed at a flow rate of 20 μl/min, followed by regeneration of sensor chip with 10 μl of 15 mM NaOH and 150 mM NaCl. After subtraction of blank control, the binding curves were analyzed based on a nonlinear curve fitting using a 1:1 Langmuir binding model and the software package BIAevaluation 4 (GE Healthcare). The apparent equilibrium constant (KD) was calculated as kd/ka, in which ka and kd are the apparent association and dissociation constants, respectively.

T1 sequence (Q62765 46-697 limits assumed): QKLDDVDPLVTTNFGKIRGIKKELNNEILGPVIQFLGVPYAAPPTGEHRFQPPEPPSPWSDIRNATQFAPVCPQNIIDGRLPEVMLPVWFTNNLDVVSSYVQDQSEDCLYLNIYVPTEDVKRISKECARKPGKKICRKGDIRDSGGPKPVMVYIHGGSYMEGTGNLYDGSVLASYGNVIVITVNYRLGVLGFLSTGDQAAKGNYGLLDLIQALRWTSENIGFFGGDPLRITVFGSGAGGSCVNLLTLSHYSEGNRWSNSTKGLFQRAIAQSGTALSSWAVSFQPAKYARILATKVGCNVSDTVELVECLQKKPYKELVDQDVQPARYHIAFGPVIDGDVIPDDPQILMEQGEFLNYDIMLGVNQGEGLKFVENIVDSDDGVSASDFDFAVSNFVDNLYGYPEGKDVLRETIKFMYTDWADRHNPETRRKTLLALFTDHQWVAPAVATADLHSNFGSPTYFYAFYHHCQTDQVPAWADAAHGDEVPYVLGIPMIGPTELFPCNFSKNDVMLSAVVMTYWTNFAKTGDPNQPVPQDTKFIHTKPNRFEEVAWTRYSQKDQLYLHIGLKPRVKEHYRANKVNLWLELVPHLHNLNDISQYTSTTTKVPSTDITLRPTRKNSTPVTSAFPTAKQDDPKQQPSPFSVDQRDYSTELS

| Kd [1] [nM] | Kd [2] [nM] | Substance |
| --- | --- | --- |
| 19.9 |  | Recombinant rat neuroligin-1 (NL1), soluble extracellular domain (from UniProt Q62765 46-697) (domain or fragment) |
|  | 6.64 | NX1β: recombinant neurexin-1β, positive control for binding to NL1 |
